Source: article PMC12756002 (2025)

B1: Sis1-WT [yeast] / full-length Rnq1 [yeast] (parent complex)
chain 1: MVKETKLYDLLGVSPSANEQELKKGYRKAALKYHPDKPTGDTEKFKEISEAFEILNDPQKREIYDQYGLEAARSGGPSFGPGGPGGAGGAGGFPGGAGGFSGGHAFSNEDAFNIFSQFFGGSSPFGGADDSGFSFSSYPSGGGAGMGGMPGGMGGMHGGMGGMPGGFRSASSSPTYPEEETVQVNLPVSLEDLFVGKKKSFKIGRKGPHGASEKTQIDIQLKPGWKAGTKITYKNQGDYNPQTGRRKTLQFVIQEKSHPNFKRDGDDLIYTLPLSFKESLLGFSKTIQTIDGRTLPLSRVQPVQPSQTSTYPGQGMPTPKNPSQRGNLIVKYKVDYPISLNDAQKRAIDENF
chain 2: MDTDKLISEAESHFSQGNHAEAVAKLTSAAQSNPNDEQMSTIESLIQKIAGYVMDNRSGGSDASQDRAAGGGSSFMNTLMADSKGSSQTQLGKLALLATVMTHSSNKGSSNRGFDVGTVMSMLSGSGGGSQSMGASGLAALASQFFKSGNNSQGQGQGQGQGQGQGQGQGQGSFTALASLASSFMNSNNNNQQGQNQSSGGSSFGALASMASSFMHSNNNQNSNNSQQGYNQSYQNGNQNSQGYNNQQYQGGNGGYQQQQGQSGGAFSSLASMAQSYLGGGQTQSNQQQYNQQGQNNQQQYQQQGQNYQHQQQGQQQQQGHSSSFSALASMASSYLGNNSNSNSSYGGQQQANEYGRPQQNGQQQSNEYGRPQYGGNQNSNGQHESFNFSGNFSQQNNNGNQNRY
B2: Ssa1-WT [yeast] / Sis1-FLRnq1 complex (Sis1-WT premixed with denatured Rnq1) [yeast] (parent complex)
chain 1: not shown
chain 2: B1 chain 1
chain 3: B1 chain 2
B3: Sis1-WT [yeast] / Ssa1-WT [yeast] (parent complex)
chain 1: B1 chain 1
chain 2: not shown

Variants of: B1
Experiment: ELISA; 400 ng denatured FL Rnq1 immobilized; Sis1 at 20 nM; detection with Sis1-specific antibody; parent: 240; read off a plot

Row | Variant | response [Abs 450nm]
1 | chain 1 MVKETKLYDLLGVSPSANEQELKKGYRKAALKYHPDKPTGDTEKFKEISEAFEILLDPQKREIYDQYGLEAARSGGPSFGPGGPGGAGGAGGFPGGAGGFSGGHAFSNEDAFNIFSQFFGGSSPFGGADDSGFSFSSYPSGGGAGMGGMPGGMGGMHGGMGGMPGGFRSASSSPTYPEEETVQVNLPVSLEDLFVGKKKSFKIGRKGPHGASEKTQIDIQLKPGWKAGTKITYKNQGDYNPQTGRRKTLQFVIQEKSHPNFKRDGDDLIYTLPLSFKESLLGFSKTIQTIDGRTLPLSRVQPVQPSQTSTYPGQGMPTPKNPSQRGNLIVKYKVDYPISLNDAQKRAIDENF [chain 1 N56L] | ~60
2 | chain 1 MVKETKLYDLLGVSPSANEQELKKGYRKAALKYHPDKPTGDTEKFKEIVEAFEILNDPQKREIYDQYGLEAARSGGPSFGPGGPGGAGGAGGFPGGAGGFSGGHAFSNEDAFNIFSQFFGGSSPFGGADDSGFSFSSYPSGGGAGMGGMPGGMGGMHGGMGGMPGGFRSASSSPTYPEEETVQVNLPVSLEDLFVGKKKSFKIGRKGPHGASEKTQIDIQLKPGWKAGTKITYKNQGDYNPQTGRRKTLQFVIQEKSHPNFKRDGDDLIYTLPLSFKESLLGFSKTIQTIDGRTLPLSRVQPVQPSQTSTYPGQGMPTPKNPSQRGNLIVKYKVDYPISLNDAQKRAIDENF [chain 1 S49V] | ~130
3 | chain 1 MVKETKLYDLLGVSPSANEQELKKGYRKAALKYHPDKPTGDTEKFKEISEAFKILNDPQKREIYDQYGLEAARSGGPSFGPGGPGGAGGAGGFPGGAGGFSGGHAFSNEDAFNIFSQFFGGSSPFGGADDSGFSFSSYPSGGGAGMGGMPGGMGGMHGGMGGMPGGFRSASSSPTYPEEETVQVNLPVSLEDLFVGKKKSFKIGRKGPHGASEKTQIDIQLKPGWKAGTKITYKNQGDYNPQTGRRKTLQFVIQEKSHPNFKRDGDDLIYTLPLSFKESLLGFSKTIQTIDGRTLPLSRVQPVQPSQTSTYPGQGMPTPKNPSQRGNLIVKYKVDYPISLNDAQKRAIDENF [chain 1 E53K] | ~140
4 | chain 1 MVKETKLYDLLGVSPSANEQELKKGYRKAALKYHPDKPTGDTEKFKEISEAFAILNDPQKREIYDQYGLEAARSGGPSFGPGGPGGAGGAGGFPGGAGGFSGGHAFSNEDAFNIFSQFFGGSSPFGGADDSGFSFSSYPSGGGAGMGGMPGGMGGMHGGMGGMPGGFRSASSSPTYPEEETVQVNLPVSLEDLFVGKKKSFKIGRKGPHGASEKTQIDIQLKPGWKAGTKITYKNQGDYNPQTGRRKTLQFVIQEKSHPNFKRDGDDLIYTLPLSFKESLLGFSKTIQTIDGRTLPLSRVQPVQPSQTSTYPGQGMPTPKNPSQRGNLIVKYKVDYPISLNDAQKRAIDENF [chain 1 E53A] | ~79

Variants of: B2
Experiment: ELISA; Denatured Rnq1 premixed with Sis1 and immobilized; Ssa1-WT at 20 nM; detection with αSsa1 antibody; parent: 230; read off a plot

Row | Variant | response [Abs 450nm]
5 | chain 2 E53K | ~110
6 | chain 2 E53A | ~120
7 | chain 2 N56L | ~89
8 | chain 2 S49V | ~170

Variants of: B3
Experiment: ELISA; Ssa1 (200 nM) immobilized; Sis1 at 20 nM; detection with αSis1 antibody; parent: 130; read off a plot

Row | Variant | response [Abs 450nm]
9 | chain 1 S49V | ~82
10 | chain 1 N56L | ~75
11 | chain 1 E53A | ~78
12 | chain 1 E53K | ~97
